Measured values reported in the supplement of paper PMC9170038.

tested on: MS2 coat protein; assay: apparent KD of MS2 coat protein; higher = weaker reporter binding; conditions: Eterna round: R107; input ligand: arginine 13.2 mM
In short: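 The designed RNA switches were transcribed on-chip from Illumina sequencing clusters. In 100 mM Tris-HCl pH 7.5, 80 mM KCl and 4 mM MgCl2, without or with constant ligand, they were titrated with SNAP-549-labelled MS2 coat protein from 0.7 or 1.5 nM to 3 µM in twofold steps. Apparent KD is the per-design median of normalised cluster binding-curve fits.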

Row | Sequence | apparent KD of MS2 coat protein
1 | AUAUAUAUGCGAAGGAGCGGGAAAUAUAUAUAUAUAAUCCUAACAUGAGGAUCACCCAUGUCCCAGGUAGGUCGCGCAUAUAUAU [12.A] | 0.0682 µM
2 | UUAAGAGGAUAUCAAAUUUGAUUUUGUGAUACCAGAAUAAUUUUAUUCCCUUGGCAGCAUGACAUGAGGAUCACCCAUGUGUCUU [SSTheo A #1] | 0.0373 µM
3 | ACAUGAGGAUCACCCAUGUAUGGCGCGGAAGGAGCGUGAUUAAGCACAGGUAGGUCGCUGCGUUGAUCGAGCGUUAGCUCGAUAA [SSArg A #9] | 0.0158 µM
4 | UGUAACAUGAGGAUCACCCAUGUGCACGAUACCAGCUUAUUGAUAGGCCCUUGGCAGCGUAUGCGGAAGCUGUAUAAUAUAUAUC [#27 SameState-TheophyllineA] | 0.0103 µM
5 | UGUGGGUCCGAAGAUACCAGCCAGCACAGCAUGUGUUUAAACAUGAGGAUCACCCAUGUCGGCCCUUGGCAGCUUGGUUUGGACG [theeternabot_exclusion_MS2_Theo_B_7] | 0.0155 µM
6 | AACAUGAGGAUCACCCAUGUCGGGCCGGUGCGAGGACCGGUACGGCCGCCACUCGAGACAUGAGGAUCACCCAUGUUGUGCGUGA [Exclusion Tryptophan A GF23] | 0.0526 µM
7 | CGGCCCUCACUUGAGGAUCACCCAAGUGAUACCAGCCUGGAAACAGGCCCUUGGCAGCACUAGGUCAUCAAAGAUGACCAAGCCG [TheoAX 28 #OpenEnded #AlternativeMS2] | 0.0148 µM
8 | AACUGGAAAAGUGAUACCAGAGACAUGAGGAUCACCCAUGUACAUGAGGAUCACCCAUGUCUCCCUUGGCAGCACAAAAGGGAGA [Exclusion Theophylline B Gf11] | 0.0161 µM
9 | AGUACACGAACGGAUACCAGCCGGACAUGAGGAUCACCCAUGUCCUACCUCUGUUCGGUUGGCCCUUGGCAGCCGUUCGUGUACA [Omei Theo B SS A v8] | 0.122 µM
10 | CAAUUUCGAAUAGAUACCAGCUGUCAUAAACACAUGAGGAUCACCCAUGUGCUUCUCGUCAGCCCUUGGCAGCUAUAACUAGAGC [theeternabot_sameState_MS2_Theo_B_40] | 0.0154 µM
11 | ACAUGAGGAUCACCCAUGUGGAGCAGGGUACGAGGACCGGUACGGCCGCCACUCGAGCGUUAUGACGAGUGAAUGGCAACGAUGU [whbob_X-Trypto_A_V1.0] | 0.00993 µM
12 | ACAUGAGGAUCACCCAUGUAAAUCCUCGAUACCAGCCAAAGGAGAGGCCCUUGGCAGCGGAAAGGCCGGGUAUAAAUGUCCGGCC | 0.0716 µM
13 | UAUUUUGUGAUGGAUACCAGCAGAGAAAACGUUUAUCCUAACAUGAGGAUCACCCAUGUAUGCCCUUGGCAGCUGUUGUGGGAUA [8.Q] | 0.0249 µM
14 | UCUUGAGUUUCGGAUACCAGUGUUGUCGAUACAUGAGGAUCACCCAUGUUAGAGGAUGUACACCCUUGGCAGCCGGGUGUGGCGG [tftmullin] | 0.0122 µM
15 | UGUAUGUGAUUUGAUACCAGACCAGCUGGUGUUAGAUGAGGAUCACCCAUCUAGGUUUGGGUCCCUUGGCAGCAAAUCGCAUACU [SS Theo B #24 Ms13] | 0.018 µM
16 | GCUGUAAGUGCAGAUACCAGCGUGUUAUAUUUCUAAUGACAUGAGGAUCACCCAUGUAAAUGCCCUUGGCAGCUGCACUUACAGC [SSTHB #7] | 0.0132 µM
17 | UGAGAGACCAGAAGGAGCGACAUGAGGAUCACCCAUGUCUCCCGUUAUGGGAGUUCUUUAGGUCAGGUAGGUCGCUGGUCUCUCA [#1 Exclusion - Arginine B Attempt #8 (Inspired by Omei)] | 0.0599 µM
18 | AAUCGGGAUGGUCAAGGGUAUGCUAUAGAUACCAGUGCAGAGAAACACCCUUGGCAGCUGUGGAACAUGAGGAUCACCCAUGUAG [Theo A Ex t4] | 0.0172 µM
19 | UAUAUAGAAGGAAGUCAUAUAGAUGCAGAAGGAGCGUAGGAAACUACAGGUAGGUCGCUGAGGUACAUGAGGAUCACCCAUGUAG [SSArg A #15 Slice of Pi] | 0.0247 µM

Row | Sequence | apparent KD of MS2 coat protein
20 | AACGUGAACGUGGUAUACCCGUGUGCCGAAGGAGCGCCCGAAAGGGCAGGUAGGUCGCGGACGACAUGAGGAUCACCCAUGUUUG | 0.042 µM
21 | ACGUAAAGCAGAAGGAGCGUCUUAAUUCUACAUGAGGAUCACCCAUGUUUACAUUGAAUAUGACAGGUAGGUCGCUGAAGUACGA [JR_SSArginiB_Sub001] | 0.0235 µM
22 | AUAUAUACAUGAGGAUCACCCAUGUUAUUUCGAGGACCGGUACGGCCGCCACUCGAUAGAGUAGAAGUAACAUUUGUUAGAUGUA [JR_SSTryptoA_Sub011] | 0.0197 µM
23 | AUGCCUAGUGGAAGGAGCGAGGGUCUUCUCAACAUGAGGAUCACCCAUGUUCUUUUACACCCUCAGGUAGGUCGCCAUUGGGACA [Biraanve] | 0.0251 µM
24 | GGUCUCUGGAGCGAUACCAGCUUGAGUGUACUGGCCAGGUACAUGAGGAUCACCCAUGUAAGCCCUUGGCAGCGCUGCAGAGACC [#1 Exclusion - Theophylline B Attempt #16 (HarryS)] | 0.00975 µM
25 | UCUAACAUGAGGAUCACCCAUGUGGGUUAUCGAGGACCGGUACGGCCGCCACUCGACCAGUAUAACUGGCUAGAACGUAUUUGAU [theeternabot_sameState_MS2_Trp_A_34] | 0.0312 µM
26 | UACCUUAACACGGCCGCCACUCUCUAAUAGGAUCAUGGUACCGCACAUGAGGAUCACCCAUGUUUGAGGACCGGGUGUUAUGAAG [theeternabot_sameState_MS2_Trp_B_24] | 0.0148 µM
27 | ACGUAAUGCAGAAGGAGCGUCGAUCUCAUACAUGAGGAUCACCCAUGUUACAUGGUUGGACGACAGGUAGGUCGCUGAAGUACGA [#06 Exclusion - Arginine B] | 0.0242 µM
28 | GCGGACAUGAGGAUCACCCAUGUAAAUCCUCGAGGACCGGUACGGCCGCCACUCGAACGAGUGGCACGCGAGUGCGCACUCGCGU [aDa] | 0.0218 µM
29 | AGAUUCGACACGGCCGCCACUCGUGGAGGAUUACCGAGUGUCGAACAUGAGGAUCACCCAUGUACGAGGACCGGGUGUUGAGUCU [XTryp B #15] | 0.0235 µM
30 | GCGGUGGUCGGAAGGAGCGACAUGAGGAUCACCCAUGUCUCCCGUUAUGGGAGUUCCUUAGGUCAGGUAGGUCGCCGACUGCCGC [#1 Exclusion - Arginine B Attempt #21 (Inspired by Omei)] | 0.105 µM
31 | AACAUGAGGAUCACCCAUGUAUUGGGUGAUACCAGCCUGAAUAAUGGCCCUUGGCAGCACCACGCUAACUUUAUGUCUGCGAACC [Maus] | 0.0393 µM
32 | UACAUAUGCCGAAGGAGCGCGAGAAGCAAAGCUUCAUUCCUCACAUGAGGAUCACCCAUGUCGCAGGUAGGUCGCGGCAUAUGUU [#15 Exclusion - Arginine B] | 0.0237 µM
33 | GUAAAUGUGACGGAUACCAGCGUGUUGUAGAACAUGAGGAUCACCCAUGUAGUGAUCAUGCGCCCUUGGCAGCUGGUAUGUUUGU [7.aB] | 0.0907 µM
34 | CCUCGGGACCGAAGGAGCGAGAUAACAACAUUGGGUCUCAACACAUGAGGAUCACCCAUGUCUCAGGUAGGUCGCGGUACCAUGG [Exclusion Arginine B GF22] | 0.14 µM
35 | UUUUUCGCGGGUGAUACCAGCAAAGUUGUACUGGUCUGGUACAUGAGGAUCACCCAUGUUUGCCCUUGGCAGCGCUCGGGAGAAG [#22 Exclusion-TheophyllineB] | 0.0332 µM
36 | CAUCGGGCGGUAAAUGGCGGGUACGGUGAUACCAGUUUUUGAUUUAACCCUUGGCAGCACUAUACAUGAGGAUCACCCAUGUAAU [theeternabot_exclusion_MS2_Theo_A_15] | 0.0177 µM
37 | GCCCUUGGCAGCGAUACCAGCCAAAAUUAAAAUAAACCUCUACAUGAGGAUCACCCAUGUGGCCCUUGGCAGCGAUACCAGCAAA [#ReversedDoubbleAptamer 1] | 0.0337 µM
38 | AAACGUUGCUGCGAUACCAGACAUGAGGAUCACCCAUGUACCAAGGUACGAAUAUAACAUGUCCCUUGGCAGCGCAGCAACGAAA [MAT - Exclusion Theophlline B - Mod of Eli - D7] | 0.0175 µM
